Test results: US20220356245A1 (FORTY SEVEN, published 2022)
Read-outs that look alike come from different tables or passages of the source.

T1: mouse CD47 (mCD47) expressed on CHO cells (mouse, UniProt Q61735 19-303)
T1 construct: whole, on cells; also called CHO-mCD47
T1 sequence (looked up): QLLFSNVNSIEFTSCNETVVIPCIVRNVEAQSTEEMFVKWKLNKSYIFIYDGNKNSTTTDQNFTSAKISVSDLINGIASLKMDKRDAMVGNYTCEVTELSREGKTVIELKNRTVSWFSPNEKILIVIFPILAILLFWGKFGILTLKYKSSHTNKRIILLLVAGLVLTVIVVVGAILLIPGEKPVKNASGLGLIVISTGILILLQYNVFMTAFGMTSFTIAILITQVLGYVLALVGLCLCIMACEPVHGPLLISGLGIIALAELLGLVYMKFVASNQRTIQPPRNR

B1: 5A3M3 (mouse antibody from Novimmune) (antibody, V domains shown)
VH: not shown
VL: DIQMTQSPSSLSASVGDRVTITCQASQSISSYLNWYQQKPGKAPKLLIYAASSLETGVPSRFSGSGSGTDFTFTISSLQPEDIATYYCQQKHPRGPRTFGQGTKVEIKR
B2: B6H12 (mouse IgG1, Abcam) (antibody, V domains shown)
VH: EVQLVESGGDLVKPGGSLKLSCAASGFTFSGYGMSWVRQTPDKRLEWVATITSGGTYTYYPDSVKGRFTISRDNAKNTLYLQIDSLKSEDTAIYFCARSLAGNAMDYWGQGTSVTVSS
VL: DIVMTQSPATLSVTPGDRVSLSCRASQTISDYLHWYQQKSHESPRLLIKFASQSISGIPSRFSGSGSGSDFTLSINSVEPEDVGVYYCQNGHGFPRTFGGGTKLEIK
B3: h20-VH2-VL3 (candidate 20.8) (antibody, human IgG4 S228P, kappa, V domains shown)
VH: QVQLVQSGAEVKKPGASVKVSCKASGYSFTDYYINWVRQAPGQGLEWMGRIYPGIGNTYYNKKFKGRVTITRDTSASTAYMELSSLRSEDTAVYYCARGHYGRGMDYWGQGTLVTVSS
VL: EIVLTQSPDSLAVSLGERATINCKSSQSLLNSIDQKNYLAWYQQKAGQSPKLLIYFASTKESGVPDRFSGSGSGTDFTLTIDSLQAEDVAVYYCQQHYSTPWTFGGGTKVEIKR
notes: hIgG4-S228P/kappa; also called h20-H2-L3
B4: h20-VH1-VL3 (candidate 20.3) (antibody, human IgG4 S228P, kappa, V domains shown)
VH: QVQLLESGAVLARPGTSVKISCKASGYSFTDYYINWVKQRPGQGLEWIGRIYPGIGNTYYNKKFKGRAKLTAATSASIAYLEFSSLTNEDSAVYYCARGHYGRGMDYWGQGTLVTVSS
VL: EIVLTQSPDSLAVSLGERATINCKSSQSLLNSIDQKNYLAWYQQKAGQSPKLLIYFASTKESGVPDRFSGSGSGTDFTLTIDSLQAEDVAVYYCQQHYSTPWTFGGGTKVEIKR
notes: hIgG4-S228P/kappa; also called h20-H1-L3
B5: h20-VH1-VL5 (candidate 20.5) (antibody, human IgG4 S228P, kappa, V domains shown)
VH: QVQLLESGAVLARPGTSVKISCKASGYSFTDYYINWVKQRPGQGLEWIGRIYPGIGNTYYNKKFKGRAKLTAATSASIAYLEFSSLTNEDSAVYYCARGHYGRGMDYWGQGTLVTVSS
VL: DIVMTQSPDSLAVSLGERATINCKSSQSLLNSIDQKNYLAWYQQKPGQPPKLLIYFASTKESGVPDRFSGSGSGTDFTLTISGLQAEDVAVYFCQQHYSTPWTFGGGTKVEIRR
notes: hIgG4-S228P/kappa; also called h20-H1-L5
B6: h20-VH4-VL3 (candidate 20.18) (antibody, human IgG4 S228P, kappa, V domains shown)
VH: QVQLVQSGAEVKKPGSSVKVSCKASGYSFTDYYINWVRQAPGQGLEWMGRIYPGIGNTYYNKKFKGRVTITADKSTSTAYMELSSLRSEDTAVYYCARGHYGRGMDYWGQGTTVTVSS
VL: EIVLTQSPDSLAVSLGERATINCKSSQSLLNSIDQKNYLAWYQQKAGQSPKLLIYFASTKESGVPDRFSGSGSGTDFTLTIDSLQAEDVAVYYCQQHYSTPWTFGGGTKVEIKR
notes: hIgG4-S228P/kappa; also called h20-H4-L3
B7: h20-VH2-VL4 (candidate 20.9) (antibody, human IgG4 S228P, kappa, V domains shown)
VH: QVQLVQSGAEVKKPGASVKVSCKASGYSFTDYYINWVRQAPGQGLEWMGRIYPGIGNTYYNKKFKGRVTITRDTSASTAYMELSSLRSEDTAVYYCARGHYGRGMDYWGQGTLVTVSS
VL: DIVMTQSPDSLAVSLGERATINCKSSQSLLNSIDQKNYLAWYQQKPGQPPKLLIYFASTKESGVPDRFSGSGSGTDFTLTISSLQAEDVAVYFCQQHYSTPWTFGGGAKVEIKR
notes: hIgG4-S228P/kappa; also called h20-H2-L4
B8: h20-VH5-VL4 (candidate 20.24) (antibody, human IgG4 S228P, kappa, V domains shown)
VH: QVQLVQSGAEVKKPGASVKVSCKASGYSFTDYYINWVRQAPGQGLEWMGRIYPGIGNTYYNKKFKGRVTMTRYTSISTAYMELSRLRSDDTAVYFCARGHYGRGMDYWGQGTTVTVSS
VL: DIVMTQSPDSLAVSLGERATINCKSSQSLLNSIDQKNYLAWYQQKPGQPPKLLIYFASTKESGVPDRFSGSGSGTDFTLTISSLQAEDVAVYFCQQHYSTPWTFGGGAKVEIKR
notes: hIgG4-S228P/kappa; also called h20-H5-L4
B9: h20-VH5-VL5 (candidate 20.25) (antibody, human IgG4 S228P, kappa, V domains shown)
VH: QVQLVQSGAEVKKPGASVKVSCKASGYSFTDYYINWVRQAPGQGLEWMGRIYPGIGNTYYNKKFKGRVTMTRYTSISTAYMELSRLRSDDTAVYFCARGHYGRGMDYWGQGTTVTVSS
VL: DIVMTQSPDSLAVSLGERATINCKSSQSLLNSIDQKNYLAWYQQKPGQPPKLLIYFASTKESGVPDRFSGSGSGTDFTLTISGLQAEDVAVYFCQQHYSTPWTFGGGTKVEIRR
notes: hIgG4-S228P/kappa; also called h20-H5-L5
B10: h20-VH3-VL4 (candidate 20.14) (antibody, human IgG4 S228P, kappa, V domains shown)
VH: QVQLVQSGAEVKKPGASVKVSCKASGYSFTDYYINWVRQAPGQGLEWMGRIYPGIGNTYYNKKFKGRVTVTRDTSISTAHMELSSLRSDDTAVYYCARGHYGRGMDYWGQGTAVTVSS
VL: DIVMTQSPDSLAVSLGERATINCKSSQSLLNSIDQKNYLAWYQQKPGQPPKLLIYFASTKESGVPDRFSGSGSGTDFTLTISSLQAEDVAVYFCQQHYSTPWTFGGGAKVEIKR
notes: hIgG4-S228P/kappa; also called h20-H3-L4
B11: h20-VH3-VL5 (candidate 20.15) (antibody, human IgG4 S228P, kappa, V domains shown)
VH: QVQLVQSGAEVKKPGASVKVSCKASGYSFTDYYINWVRQAPGQGLEWMGRIYPGIGNTYYNKKFKGRVTVTRDTSISTAHMELSSLRSDDTAVYYCARGHYGRGMDYWGQGTAVTVSS
VL: DIVMTQSPDSLAVSLGERATINCKSSQSLLNSIDQKNYLAWYQQKPGQPPKLLIYFASTKESGVPDRFSGSGSGTDFTLTISGLQAEDVAVYFCQQHYSTPWTFGGGTKVEIRR
notes: hIgG4-S228P/kappa; also called h20-H3-L5
B12: h20-VH1-VL4 (candidate 20.4) (antibody, human IgG4 S228P, kappa, V domains shown)
VH: QVQLLESGAVLARPGTSVKISCKASGYSFTDYYINWVKQRPGQGLEWIGRIYPGIGNTYYNKKFKGRAKLTAATSASIAYLEFSSLTNEDSAVYYCARGHYGRGMDYWGQGTLVTVSS
VL: DIVMTQSPDSLAVSLGERATINCKSSQSLLNSIDQKNYLAWYQQKPGQPPKLLIYFASTKESGVPDRFSGSGSGTDFTLTISSLQAEDVAVYFCQQHYSTPWTFGGGAKVEIKR
notes: hIgG4-S228P/kappa; also called h20-H1-L4
B13: h20-VH5-VL3 (candidate 20.23) (antibody, human IgG4 S228P, kappa, V domains shown)
VH: QVQLVQSGAEVKKPGASVKVSCKASGYSFTDYYINWVRQAPGQGLEWMGRIYPGIGNTYYNKKFKGRVTMTRYTSISTAYMELSRLRSDDTAVYFCARGHYGRGMDYWGQGTTVTVSS
VL: EIVLTQSPDSLAVSLGERATINCKSSQSLLNSIDQKNYLAWYQQKAGQSPKLLIYFASTKESGVPDRFSGSGSGTDFTLTIDSLQAEDVAVYYCQQHYSTPWTFGGGTKVEIKR
notes: hIgG4-S228P/kappa; also called h20-H5-L3

Key:
[1] = target: T2, human CD47 (hCD47) expressed on cells (human, UniProt Q08722 19-323); test: flow cytometry, Raji cells
T2 construct: Transfected CHO cells or endogenous CD47 of human cells; also called CHO-hCD47; CD47 on Raji cells
Description: Raji cells (ATCC-CLL-86; 2×10⁵ cells/well of 96-well plate) were first incubated at +4° C. for 30 minutes with serial dilutions of anti-CD47 antibodies or control isotype antibody (in mIgG2a or mIgG1 format). The cells were then washed and incubated for 30 minutes at +4° C. with a PE-conjugated F(ab)′2 goat anti-mouse IgG antibody ( 1/100 dilution, Beckman Coulter). After washings, the fluorescence of the cells was analyzed by flow cytometry on an Accuri-C6 flow cytometer (BD Biosciences).
The delta of MFI, representing the difference between the intensity measured with the tested antibody and the intensity in the absence of antibody, was calculated for each antibody concentration and the values were plotted against the antibody concentrations. The EC50 values were then calculated by using a nonlinear regression analysis model of the GraphPad Prism software.

[2] = target: T3, hu-sCD47-6His; extracellular domain of human CD47 antigen with 6His-tag (human); test: SPR Biacore T200, antibody captured, hCD47-his analyte;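 note: antibodies captured on anti-IgG (Fc) CM5 chip, five sequential 10 min antigen injections at rising concentrations, reference flow cell and antigen-free cycle as controls, 1:1 model fit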
T3 construct: also called hCD47-his; soluble hCD47
Excerpt: An anti-human or anti-mouse IgG (Fc) was first immobilized on the surface of Serie S Sensor Chips CM5 using the human or mouse antibody capture and amine coupling kits, following the manufacturer's instructions (GE Healthcare). […] The mouse, chimerized or humanized antibodies to be tested were then captured onto the appropriate anti-mouse or anti-human IgG surface in all flow cells except flow cell 1 used as control, at concentration and contact time adjusted so that ˜300 RU were captured on the surface. Binding kinetics were studied by passing increasing concentrations of hCD47-his in a series of five 10 minute injections through all flow cells at a rate of 30 μL/min. […] Following the final injection, buffer was passed across each flow cell for 60 minutes (mouse) or 30 minutes (human) to monitor the dissociation of bound antigen. Regeneration of the binding surface was carried out at the end of the cycle by flowing 3 M MgCl₂ for 60 s at 20 μL/min followed by 10 mM glycine-HCl, pH 1.7 for 180 s at 10 μl/min (for human) or by flowing 10 mM glycine-HCl, ph 1.7 for 360 s at 10 μl/min (for mouse). A second cycle with the same antibodies but no antigen was run as a control. Kinetics binding constants were estimated by non-linear fitting of the sensogram data to the 1:1 binding model provided by the Biacore T200 evaluation software.

[3] = target: T3, hu-sCD47-6His; extracellular domain of …; test: SPR Biacore; head read as x 10^-4;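 for Kd: antibodies captured on anti-IgG CM5 chip, soluble His-tagged human CD47 flowed over at rising concentrations, five 10 min injections, flow cell 1 as reference, 1:1 model fit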;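 for kon: antibodies captured on anti-IgG CM5 chip, soluble His-tagged human CD47 flowed over at rising concentrations, five 10 min injections, flow cell 1 as reference, 1:1 model fit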
[4] = target: T2, human CD47 (hCD47) expressed on cells; test: flow cytometry, Raji cells; remark: listed apart in the source
[5] = target: T3, hu-sCD47-6His; extracellular domain of …; test: SPR Biacore;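 note: antibodies captured on anti-IgG CM5 chip, soluble His-tagged human CD47 flowed over at rising concentrations, five 10 min injections, flow cell 1 as reference, 1:1 model fit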
[6] = target: T2, human CD47 (hCD47) expressed on cells; test: flow cytometry, Raji cells, competition with hSIRPα
[7] = target: T1, mouse CD47 (mCD47) expressed on CHO …; test: flow cytometry, CHO-mCD47 cells (not shown)

Binder | EC50 [1] [µg/mL] | Kd [2] [nM] | koff [2] [s⁻¹] | kon [2] [M⁻¹ s⁻¹] | koff [3] [s⁻¹] | EC50 [4] [µg/mL] | Kd [5] [nM] | kon [5] [M⁻¹ s⁻¹] | IC50 [6] [µg/mL] | binding result [7]
B1 | 0.301 |  |  |  |  |  |  |  |  | 
B2 |  | 5.14 | 6.59e-05 | 12900 |  |  |  |  |  | 
B3 |  |  |  |  | 0.000628 | 0.184 | 3.65 | 189000 | 0.079 | no binding
B4 |  |  |  |  | 0.000839 | 0.184 | 7.33 | 131000 | 0.228 | no binding
B5 |  |  |  |  | 0.000595 | 0.206 | 3.53 | 198000 | 0.111 | no binding
B6 |  |  |  |  | 0.000733 | 0.164 | 4.37 | 180000 | 0.142 | no binding
B7 |  |  |  |  | 0.000632 | 0.173 | 3.34 | 219000 | 0.123 | no binding
B8 |  |  |  |  | 0.00102 | 0.177 | 11 | 103000 | 0.133 | no binding
B9 |  |  |  |  | 0.00109 | 0.159 | 9.69 | 126000 | 0.112 | no binding
B10 |  |  |  |  | 0.000581 | 0.143 | 3.02 | 216000 | 0.135 | no binding
B11 |  |  |  |  | 0.000528 | 0.143 | 2.36 | 242000 | 0.113 | no binding
B12 |  |  |  |  | 0.000772 | 0.248 | 7.58 | 126000 | 0.261 | no binding
B13 |  |  |  |  | 0.000841 | 0.19 | 9.93 | 104000 | 0.169 | no binding
